US20040253247A1 (Genentech, published 2004)

B1: phage clone DLADCSYWLGELVWCSRVEG (peptide)
peptide: DLADCSYWLGELVWCSRVEG
notes: M13/gIII phage display; Focused Libraries
B2: phage clone KEASCSYWLGELVWCDGLDE (peptide)
peptide: KEASCSYWLGELVWCDGLDE
notes: as for B1
B3: phage clone KEASCSYWLGELVWCDTFDE (peptide)
peptide: KEASCSYWLGELVWCDTFDE
notes: as for B1
B4: phage clone KEASCSYWLGELVWCVGLDE (peptide)
peptide: KEASCSYWLGELVWCVGLDE
notes: as for B1
B5: phage clone KEARCWYWHGELVWCSDPEE (peptide)
peptide: KEARCWYWHGELVWCSDPEE
notes: as for B1
B6: phage clone WEADCAWHLGELVWCTKVEE (peptide)
peptide: WEADCAWHLGELVWCTKVEE
notes: M13/gIII phage display; Secondary Optimization
B7: phage clone GEADCAWHLGELVWCTKVEE (peptide)
peptide: GEADCAWHLGELVWCTKVEE
notes: as for B6
B8: phage clone KEADCAWHLGELVWCVAGVE (peptide)
peptide: KEADCAWHLGELVWCVAGVE
notes: as for B1
B9: phage clone KEASCSYWLGELVWCSPGVE (peptide)
peptide: KEASCSYWLGELVWCSPGVE
notes: as for B1
B10: phage clone KEASCSYWLGELVWCTEGVE (peptide)
peptide: KEASCSYWLGELVWCTEGVE
notes: as for B1
B11: phage clone KEASCSWHLGELVWCVAGVE (peptide)
peptide: KEASCSWHLGELVWCVAGVE
notes: as for B1
B12: phage clone KEASCSYHLGELVWCVAGVE (peptide)
peptide: KEASCSYHLGELVWCVAGVE
notes: as for B1

target: T1, IgG-Fc (UniProt P01857-1 108-330 = IgG part, limits assumed); test: phage ELISA, M13/gIII display
T1 construct: domain: IgG-Fc; also called biotinylated-IgG-Fc; biotin-IgG-Fc

Binder | EC50
DLADCSWHLGELVWCSRVEG (M13/gIII phage display; Designed Clones) [phage clone DLADCSWHLGELVWCSRVEG] | 9 nM
B1 | 776 nM
B2 | 326 nM
B3 | 301 nM
B4 | 278 nM
B5 | 809 nM
B6 | 7 nM
B7 | 38 nM
B8 | 138 nM
B9 | 734 nM
B10 | 818 nM
B11 | 225 nM
B12 | 416 nM

target: human albumin (human, UniProt P02768 25-609); test: phage ELISA
Experimental: (§1) Phage ELISA—Phage clones (˜10¹¹ phage) were added to plates coated with rat, rabbit or human albumin. The microtiter plate was washed with wash buffer and bound phage were detected with HRP/Anti-M13 Conjugate. The amount of HRP bound was measured using ABTS/H₂O₂ substrate and monitoring the change at 405 nm.

Binder | binding result
DICLPVWGCLW (phage clone, Library RC) [RC-R18] | no binding
DICLPVWGCLW (phage clone, Library RC) [RC-R10] | no binding
DFDLCLPDWGCLWDD (phage clone, Library RBC) [RBC-R10] | no binding
EWDVCFPAWGCLWDQ (phage clone, Library RBC) [RBC-R18] | no binding
EEDVCLPVWGCLWEG (phage clone, Library RBC) [RBC-R20] | no binding
KSRMGDFCLPEWGCLWGDEL (phage clone, Library RB) [RB-R9] | no binding
VWDLCLPQWGCLWDE (phage clone, Library RBC) [RBC-R11] | no binding
DTCDDLVQLGLECWA (phage clone, Library RD) [RD-R11] | no binding
MWDVCFPDWGCLWDV (phage clone, Library RBC) [RBC-R15] | no binding
WDDICFRDWGCLWGS (phage clone, Library RBC) [RBC-R7] | no binding
GRQVVDFCLPKWGCLWEEGL (phage clone, Library RB) [RB-R2] | no binding
MFDLCLPKWGCLWGN (phage clone, Library RBC) [RBC-R12] | no binding
ERQMEDFCLPQWGCLWGDGV (phage clone, Library RB) [RB-R1] | no binding
QMQMSDFCLPQWGCLWGDGY (phage clone, Library RB) [RB-R3] | no binding
DICLPVWGCLW (phage clone, Library RC) [RC-R12] | no binding
FEDFCLPNWGCLWGS (phage clone, Library RBC) [RBC-R4] | no binding
FEDLCVVRWGCLWGD (phage clone, Library RBC) [RBC-R6] | no binding
SEDFCLPVWGCLWED (phage clone, Library RBC) [RBC-R9] | no binding
MDDICLHHWGCLWDE (phage clone, Library RBC) [RBC-R1] | no binding
NWDLCFPDWGCLWDD (phage clone, Library RBC) [RBC-R8] | no binding
MDDLCLPNWGCLWGD (phage clone, Library RBC) [RBC-R2] | no binding
DICLPVWGCLW (phage clone, Library RC) [RC-R3] | no binding
DTCSDLVGLGLECWA (phage clone, Library RD) [RD-R1] | no binding
EFDLCLPTWGCLWED (phage clone, Library RBC) [RBC-R13] | no binding
DSCGDLLRLGLECWA (phage clone, Library RD) [RD-R6] | no binding
WEDLCLPDWGCLWED (phage clone, Library RBC) [RBC-R5] | no binding
DICLPVWGCLW (phage clone, Library RC) [RC-R2] | no binding
DTCEDLVRLGLECWA (phage clone, Library RD) [RD-R5] | no binding
NTCADLVRLGLECWA (phage clone, Library RD) [RD-R7] | no binding

target: rabbit albumin (rabbit, UniProt P49065 25-608); test: phage ELISA
Sequence (P49065 25-608 limits assumed): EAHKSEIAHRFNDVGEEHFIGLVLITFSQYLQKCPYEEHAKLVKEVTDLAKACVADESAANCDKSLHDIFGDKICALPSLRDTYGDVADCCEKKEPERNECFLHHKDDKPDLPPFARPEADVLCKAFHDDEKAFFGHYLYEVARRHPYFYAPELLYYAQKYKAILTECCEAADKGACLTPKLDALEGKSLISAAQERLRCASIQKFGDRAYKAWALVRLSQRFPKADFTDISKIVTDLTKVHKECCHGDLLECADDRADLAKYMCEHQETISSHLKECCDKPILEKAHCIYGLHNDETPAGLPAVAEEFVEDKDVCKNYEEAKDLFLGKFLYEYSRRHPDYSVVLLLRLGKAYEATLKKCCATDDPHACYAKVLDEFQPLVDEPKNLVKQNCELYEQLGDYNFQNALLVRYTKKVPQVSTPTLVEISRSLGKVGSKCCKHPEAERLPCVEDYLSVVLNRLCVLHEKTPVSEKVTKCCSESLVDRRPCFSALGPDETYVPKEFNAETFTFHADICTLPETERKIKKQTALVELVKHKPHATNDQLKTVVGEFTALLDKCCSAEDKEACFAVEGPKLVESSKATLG
Experimental: as §1

Binder | binding result
DICLPVWGCLW (phage clone, Library RC) [RC-R18] | no binding
DICLPVWGCLW (phage clone, Library RC) [RC-R10] | no binding
DFDLCLPDWGCLWDD (phage clone, Library RBC) [RBC-R10] | no binding
EWDVCFPAWGCLWDQ (phage clone, Library RBC) [RBC-R18] | no binding
EEDVCLPVWGCLWEG (phage clone, Library RBC) [RBC-R20] | no binding
KSRMGDFCLPEWGCLWGDEL (phage clone, Library RB) [RB-R9] | no binding
VWDLCLPQWGCLWDE (phage clone, Library RBC) [RBC-R11] | no binding
DTCDDLVQLGLECWA (phage clone, Library RD) [RD-R11] | no binding
MWDVCFPDWGCLWDV (phage clone, Library RBC) [RBC-R15] | no binding
WDDICFRDWGCLWGS (phage clone, Library RBC) [RBC-R7] | no binding
GRQVVDFCLPKWGCLWEEGL (phage clone, Library RB) [RB-R2] | no binding
MFDLCLPKWGCLWGN (phage clone, Library RBC) [RBC-R12] | no binding
ERQMEDFCLPQWGCLWGDGV (phage clone, Library RB) [RB-R1] | no binding
QMQMSDFCLPQWGCLWGDGY (phage clone, Library RB) [RB-R3] | no binding
DICLPVWGCLW (phage clone, Library RC) [RC-R12] | no binding
FEDFCLPNWGCLWGS (phage clone, Library RBC) [RBC-R4] | no binding
FEDLCVVRWGCLWGD (phage clone, Library RBC) [RBC-R6] | no binding
SEDFCLPVWGCLWED (phage clone, Library RBC) [RBC-R9] | no binding
MDDICLHHWGCLWDE (phage clone, Library RBC) [RBC-R1] | no binding
NWDLCFPDWGCLWDD (phage clone, Library RBC) [RBC-R8] | no binding
MDDLCLPNWGCLWGD (phage clone, Library RBC) [RBC-R2] | no binding
DICLPVWGCLW (phage clone, Library RC) [RC-R3] | no binding
DTCSDLVGLGLECWA (phage clone, Library RD) [RD-R1] | no binding
EFDLCLPTWGCLWED (phage clone, Library RBC) [RBC-R13] | no binding
DSCGDLLRLGLECWA (phage clone, Library RD) [RD-R6] | no binding
WEDLCLPDWGCLWED (phage clone, Library RBC) [RBC-R5] | no binding
DICLPVWGCLW (phage clone, Library RC) [RC-R2] | no binding
DTCEDLVRLGLECWA (phage clone, Library RD) [RD-R5] | no binding
NTCADLVRLGLECWA (phage clone, Library RD) [RD-R7] | no binding
